The text below walks through data of publication PMC3408433, “Selective Cytotoxicity of Amidinopiperidine Based Compounds Towards Burkitt’s Lymphoma Cells Involves Proteasome Inhibition” (PLoS ONE, 2012).

This data set has as its system Cc1cc(=O)oc2cc(NC(=O)[C@H](Cc3ccccc3)NC(=O)[C@@H]3CCCN3C(=O)[C@H](C)NC(=O)[C@H](C)NC(=O)CCC(=O)O)ccc12. Kind of data set: purified protein, by the assay type. The note with it: other: mean of six independent experiments, pH 7.8, 30°C.

Method: In short, a 1 nM solution of α-chymotrypsin was mixed with various concentrations of the substrate Suc-Ala-Ala-Pro-Phe-AMC. All the solutions were prepared in 144 mM Tris–HCl, pH 7.8. Substrate hydrolysis was monitored at 30°C on an automated Tecan Safire^2 microplate reader (Tecan, Mannedorf/Zürich, Switzerland). The initial rates of the reactions (ΔF/Δt) were measured immediately after the addition of the substrate (within 200 s) and plotted versus substrate concentration with nonlinear regression to fit a Michaelis-Menten plot. The curve fit and kinetic parameters (Km and v max) were calculated using GraphPad PRISM version 5.0 software (GraphPad Software, Inc., CA, USA). […] The initial velocities of the hydrolysis reactions were measured under the same conditions as described for the determination of Km. 50 µl of α-chymotrypsin solution was added to 50 µl of each inhibitor solution (prepared in 144 mM Tris–HCl, pH 7.8; final concentration 1 nM) and incubated at 30°C for 15 min. The reaction was initiated with the addition of 100 µl of substrate. […] The Ki values were determined as mean values of all measurements.

The Km is the substrate concentration at which the rate is half of its maximum. Take α-chymotrypsin (Bos taurus): the Km amounted to 66 ± 9 µM.
